Positions count from the first letter of the chain named. In names and notes the source's numbering stands. Values belong to the binder of their own block, whether it stands above or below them.
Columns and labels:
[1] = biological target: T1, purified human FAP antigen (human, UniProt Q12884 26-760, limits assumed); test: ELISA, plate coated with purified human FAP antigen (FIG. 91F)
Description: (§1) Binding kinetics of the novel antigen binding constructs to a purified human FAP antigen was assessed using ELISA. For this assay, a 96 well ELISA plate was coated with the human-FAP antigen diluted to a concentration of 2 mg/mL in coating buffer (0.05M sodium carbonate-bicarbonate buffer, pH 9.6). 100 μl of this coating solution was added to each well in the plate and incubate at 4° C. overnight. The plate was washed 3 times with 300 μl per well of washing buffer (PBS with 0.05% Tween-20). After the last wash, the plate was blocked by adding to each well 200 μl of blocking buffer (PBS with 1% BSA) warmed to room temperature. The plate was then incubated at room temperature for 1 hour under gentle agitation. After blocking, the plate was washed 3 times with 300 μl per well of washing buffer. Dilution samples for each minibody were created by making 2.5× dilutions from a starting sample at 100 ng/mL, or 250 ng/mL, or 1000 ng/mL or 3000 ng/mL in 100 μL sample buffer (PBS with 1% BSA). The dilution samples were transferred to the assay plate and incubated at room temperature for 1 hour under gentle agitation. The plate was then washed 3 times with 300 μl per well of washing buffer.

[2] = biological target: T2, purified murine FAP antigen (murine, UniProt P97321 26-761, limits assumed); test: ELISA, cross-reactivity (FIG. 92)
T2 sequence (P97321 26-761 limits assumed): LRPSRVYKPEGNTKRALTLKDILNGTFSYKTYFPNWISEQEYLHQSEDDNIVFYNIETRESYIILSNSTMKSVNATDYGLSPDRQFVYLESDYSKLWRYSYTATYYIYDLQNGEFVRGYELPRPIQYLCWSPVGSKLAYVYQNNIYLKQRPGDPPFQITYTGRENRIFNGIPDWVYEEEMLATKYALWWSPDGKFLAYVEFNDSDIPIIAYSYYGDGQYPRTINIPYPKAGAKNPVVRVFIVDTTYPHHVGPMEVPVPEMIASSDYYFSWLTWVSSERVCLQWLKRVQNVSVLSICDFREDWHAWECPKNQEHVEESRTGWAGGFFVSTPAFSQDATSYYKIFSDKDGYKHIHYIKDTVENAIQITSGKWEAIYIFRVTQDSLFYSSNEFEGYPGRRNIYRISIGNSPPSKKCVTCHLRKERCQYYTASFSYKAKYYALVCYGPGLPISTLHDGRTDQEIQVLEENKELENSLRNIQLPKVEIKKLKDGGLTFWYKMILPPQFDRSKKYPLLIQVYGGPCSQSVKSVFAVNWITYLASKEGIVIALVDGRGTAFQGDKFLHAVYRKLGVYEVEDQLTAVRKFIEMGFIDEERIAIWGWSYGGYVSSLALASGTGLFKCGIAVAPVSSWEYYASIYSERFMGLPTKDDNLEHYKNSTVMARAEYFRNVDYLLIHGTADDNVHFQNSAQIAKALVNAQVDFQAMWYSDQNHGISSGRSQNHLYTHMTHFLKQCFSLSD

[3] = biological target: T1, purified human FAP antigen; test: ELISA, plate coated with purified human FAP antigen (FIG. 91B)
Description: as §1

[4] = biological target: T1, purified human FAP antigen; test: ELISA, plate coated with purified human FAP antigen (FIG. 91D)
Description: as §1

[5] = biological target: T1, purified human FAP antigen; test: ELISA, plate coated with purified human FAP antigen (FIG. 91E)
Description: as §1

[6] = biological target: T1, purified human FAP antigen; test: ELISA, plate coated with purified human FAP antigen (FIG. 56A-56C)
Description: as §1
(§2) Detection was performed by adding 100 μl of HRP labeled detection secondary antibody at an appropriate dilution and incubating the plate at room temperature for 1 hour under gentle agitation. The plate was then washed 3 times with 300 μl per well of washing buffer. For color development, 100 μl of TMB substrate regent, pre-warmed to room temperature, was added to the plate and incubated in the dark at room temperature for 15 min. The reaction was then stopped by adding 100 μl of 650 nm stop solution to the plate and mixed for 1 min at room temperature under gentle agitation. The plate is recorded by reading OD at 650 nm in a plate reader within 20 min after terminating the reaction.

[7] = biological target: FAP (UniProt Q12884 26-760, limits assumed); test: binding kinetics, method not stated (FIG. 42B)
[8] = biological target: T2, purified murine FAP antigen; test: ELISA, cross-reactivity (FIG. 57B)
[9] = biological target: T1, purified human FAP antigen; test: ELISA, plate coated with purified human FAP antigen (FIG. 56F-56G)
Description: as §1, §2

[10] = biological target: T2, purified murine FAP antigen; test: ELISA, cross-reactivity (FIG. 57A)

Kd [1]: ~10 nM
B1: IAB16M2-50 (other)
chain: DVQLVESGGGLVKPGGSLRLSCTVSGFTFSSYTMSWVRQAPGKGLEWVSTISSGGSYTYYADSVKGRFTISRDNAKNSLYLQMNSLRAEDTAVYYCTRDQVGYAMDYWGQGTLVTVSSGSTSGGGSGGGSGGGGSSDIQMTQSPSSLSASVGDRVTITCKASQDVGIAVAWYQQKPGKAPKLLIYWASTRHTGVPSRFSGSGSGTDFTFTISSLQPEDIATYYCQQYSRYPYTFGQGTKLEIKEPKSSDKTHTCPPCPPCGGGSSGGGSGGQPREPQVYTLPPSREEMTKNQVSLTCLVKGFYPSDIAVEWESNGQPENNYKTTPPVLDSDGSFFLYSKLTVDKSRWQQGNVFSCSVMHEALHNHYTQKSLSLSPG

Kd [5]: ~0.1 nM
B5: IAB16M2-53 (other)
chain: QVQLQESGPGLVKPSETLSLTCTVSGFSLTNYDINWIRQPPGKGLEWIGLIWTGGGTNYNPSLKSRVTISKDTSKSQFSLKLSSVTAADTAVYYCVRGGPLVWYALDYWGQGTLVTVSSGSTSGGGSGGGSGGGGSSDIQMTQSPSSLSASVGDRVTITCKASQDVSTAVAWYQQKPGKAPKLLIYSASYRYTGVPSRFSGSGSGTDFTFTISSLQPEDIATYYCQQHYSNPRTFGGGTKVEIKEPKSSDKTHTCPPCPPCGGGSSGGGSGGQPREPQVYTLPPSREEMTKNQVSLTCLVKGFYPSDIAVEWESNGQPENNYKTTPPVLDSDGSFFLYSKLTVDKSRWQQGNVFSCSVMHEALHNHYTQKSLSLSPG

Kd [6]: ~0.1 nM | Kd [7]: 1.15 nM | koff [7]: 0.00108 s⁻¹ | kon [7]: 935000 M⁻¹ s⁻¹ | fold change of KD, murine FAP against human FAP [8]: ~10 fold
B6: IAB16M2-37 (other)
chain: QVQLVQSGAEVKKPGASVKVSCKASGYTFTEYTIHWVRQAPGQRLEWIGGINPNNGIPNYNQKFKGRVTITVDTSASTAYMELSSLRSEDTAVYYCARRRIAYGYDEGHAMDYWGQGTLVTVSSGSTSGGGSGGGSGGGGSSDIVMTQSPDSLAVSLGERATINCKSSQSLLYSRNQKNYLAWYQQKPGQPPKLLIFWASTRESGVPDRFSGSGSGTDFTLTISRLEPEDFAVYYCQQYYSYPLTFGQGTKVEIKEPKSSDKTHTCPPCPPCGGGSSGGGSGGQPREPQVYTLPPSREEMTKNQVSLTCLVKGFYPSDIAVEWESNGQPENNYKTTPPVLDSDGSFFLYSKLTVDKSRWQQGNVFSCSVMHEALHNHYTQKSLSLSPG
notes: also called IAB16B2-37

Second part, the binder before the results:

B2: IAB16M2-43 (other)
chain: B5 chain with S76N
binding result [2]: binds | Kd [3]: ~0.1 nM

B3: IAB16M2-51 (HC-N76S) (other)
chain: B5 chain with T73N, S76N
Kd [4]: ~0.1 nM

B4: IAB16M2-52 (other)
chain: B5 chain with S76N, Q140V
Kd [5]: ~0.1 nM

B7: IAB16M2-48 (other)
chain: QVQLVQSGAEVKKPGSSVKVSCKASGFSLTNYDINWVRQAPGQGLEWMGLIWTGGGTNYNQKFQGRVTITKDNSTSTAYMELSSLRSEDTAVYYCVRGGPLVWYALDYWGQGTLVTVSSGSTSGGGSGGGSGGGGSSDIQMTQSPSSLSASVGDRVTITCKASQDVSTAVAWYQQKPGKAPKLLIYSASYRYTGVPSRFSGSGSGTDFTLTISSLQPEDFATYYCQQHYSNPRTFGQGTKVEIK
Kd [4]: ~0.1 nM

B8: IAB16C3-26 (other)
chain: EIVLTQSPGTLSLSPGERATLSCRASQSVSRSYLAWYQQKPGQAPRLLIIGASTRATGIPDRFSGSGSGTDFTLTISRLEPEDFAVYYCQQGQVIPPTFGQGTKVEIKGGGSGGGGEVQLLESGGGLVQPGGSLRLSCAASGFTFSSHAMSWVRQAPGKGLEWVSAIWASGEQYYADSVKGRFTISRDNSKNTLYLQMNSLRAEDTAVYYCAKGWLGNFDYWGQGTLVTVSSGGCPPCPPC
Kd [9]: ~1 nM | binding result [10]: binds

B9: IAB16M1-42 (other)
chain: DIQMTQSPSSLSASVGDRVTITCKASQDVSTAVAWYQQKPGKAPKLLIYSASYRYTGVPSRFSGSGSGTDFTFTISSLQPEDIATYYCQQHYSNPRTFGGGTKVEIKGSTSGGGSGGGSGGGGSSQVQLQESGPGLVKPSETLSLTCTVSGFSLTNYDINWIRQPPGKGLEWIGLIWTGGGTNYNPSLKSRVTISKDTSKNQFSLKLSSVTAADTAVYYCVRGGPLVWYALDYWGQGTLVTVSSEPKSSDKTHTCPPCPPCGGGSSGGGSGGQPREPQVYTLPPSREEMTKNQVSLTCLVKGFYPSDIAVEWESNGQPENNYKTTPPVLDSDGSFFLYSKLTVDKSRWQQGNVFSCSVMHEALHNHYTQKSLSLSPG
Kd [3]: ~0.1 nM

Reference: patent publication US20240390531A1 (IMAGINAB, published 2024)
